From patent US5763573A, “GTPase activating protein fragments” (Chiron Corporation, priority 1995, dated 1998)

What was measured:
H-ras protein = H-ras protein (Homo sapiens, UniProt P01112); test: Typical GAP assay with immunoprecipitated H-ras bound to α-32P-GTP, TLC; type: biochemical; details: sufficient GAP; 60 minutes at room temperature
Text: A typical GAP assay can be carried out as follows. Approximately 0.8 micrograms of H-ras protein obtained as described by Trahey, et al., supra was bound to α-32P-GTP followed by precipitation of the complex with 13 micrograms of an anti-ras antibody, 157-181, that recognizes the carboxyl terminal end of the molecule. Specifically, 157-181 recognizes the carboxyl terminal residues at positions 157-181. Adari et al., 1988 Science, […]:518. Next, 10 micrograms of sheep-anti-mouse IgG, and 10 microliters of protein A-Sepharose beads were added. As a control, the same reactants were combined except that rat IgG replaced 157-181, and goat anti-rat IgG replaced sheep anti-mouse IgG. The pellets were washed with 20 mM tris hydrochloride, pH 7.4, containing 20 mM sodium chloride, 1 mM magnesium chloride and 1 mM DTT and resuspended in the same solution. Four microliter aliquots of the immune complex were then mixed with 10 microliters of GAP, or, as a control, buffer without GAP. After 60 minutes incubation at room temperature the Sepharose beads were washed again, and the bound nucleotides analyzed using thin layer chromatography with 1M LiCl as the solvent. […] The assay detects GAP in a semi-quantitative, dose-dependent fashion. Quantitation can be improved by scraping the relevant regions of the plate and measuring cpm in GDP by use of a gamma counter.

ras p21 protein = test: Filter assay of ras p21 hydrolysis of 32-P gamma-GTP with and without GAP; type: biochemical; details: FIG. 13; presence and absence of GAP; 30 minutes at room temperature
Experimental: The above four peptides, in the following two experiments, were tested for their abilities to inhibit the hydrolysis of GTP by ras p21 protein, in the presence and absence of GAP. The first experiment involved peptides G65, G73 and 891. It was carried out as follows: purified wild type ras p21 protein was incubated with 0.25 μM 32-P gamma-GTP in 100 mM NaPO4, pH 6.8, 0.5 mM DTT, 0.5 mM EDTA, 0.005% Na cholate, and 0.5 mg/ml BSA for 15 minutes at 30° C. The mixture was then diluted ten fold with TNM buffer (comprising 20 mM Tris-HCl, pH 7.0, 100 mM NaCl, 5 mM MgCl2). 20 μl (0.05 μg of p21) of this mixture was then combined with 2 μl of the peptide in 25 mM NaOAc, pH 5.5 and incubated for 5 minutes at room temperature. The GAP assay was initiated by the addition of 12 ng GAP in 5 μl TNM buffer with 1 mg/ml BSA or 5 μl TNM BSA buffer for the GAP independent reactions, and the resulting mixture was incubated for 30 minutes at room temperature. The samples were then filtered through nitrocellulose membranes and washed three times with cold TNM. The filters were dried and their radioactivity counted. […] In the presence of GAP, the radioactive ras p21-GTP complex is hydrolyzed to GDP and ras p21 protein, thus reducing the resulting amount of radioactive p21-GTP bound to the filter and consequently, the radioactive counts detected. […]

Chain of H-ras protein (P01112 whole entry): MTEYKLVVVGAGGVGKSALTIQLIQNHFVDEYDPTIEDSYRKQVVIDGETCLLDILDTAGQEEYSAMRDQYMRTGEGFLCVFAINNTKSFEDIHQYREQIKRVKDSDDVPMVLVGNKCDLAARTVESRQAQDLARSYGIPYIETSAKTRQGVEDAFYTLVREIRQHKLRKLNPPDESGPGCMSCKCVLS

Row | Substance | hydrolysis of GTP to GDP (H-ras protein) | effect on hydrolysis of GTP (radioactive counts of ras p21-GTP complex on filter) (ras p21 protein)
1 | GAP: guanine triphosphatase activating protein purified from human placenta, about 115,000-120,000 daltons | near complete hydrolysis | –
2 | peptide G73: peptide corresponding to amino acids positions 975-990 of the full length GAP (GNVPELPDTTEHSRTD; UniProt P20936 975-990, looked up, fragment) | – | do not affect
